Positions count from the first letter of the chain named. *1 amine or outer side, *2 acyl side, *3 side chain or, on linkers, in order; H or OH if unused. Where no end group is shown, it is not given here. Side-chain parts run from the residue outwards. [ ]: non-standard residue; d: D form. The star is where a group is joined. Decanoyl(10-(4-HOOC-PhO)) = O=C(O)c1ccc(OCCCCCCCCCC(=O)*)cc1; αMePhe(2-F) = C[C@](N)(Cc1ccccc1F)C(=O)O; γGlu = O=C(O)[C@H](CCC(=O)[*:2])N[*:1]; C14 diacid = O=C(O)CCCCCCCCCCCCC(=O)*; αMeY = C[C@](N)(Cc1ccc(O)cc1)C(=O)O; αMeL = CC(C)C[C@](C)(N)C(=O)O; Orn = NCCC[C@H](N)C(=O)O; AEEA = NCCOCCOCC(=O)O; Aib = CC(C)(N)C(=O)O
B1: Example 414 (peptide)
peptide: YXEGTXTSDXXIXLDXKAQXXFIXXLIKGGPSSGAPPPS
modifications: Y-Aib-EGT-αMeF(2F)-TSD-4Pal-Aib-I-αMeL-LD-Orn-K((2-[2-(2-Amino-ethoxy)-ethoxy]-acetyl)2-(γ-Glu)-CO-(CH2)10-CH3)AQ-Aib-Orn-FI-(D-Glu)-αMeY-LIK((2-[2-(2-Amino-ethoxy)-ethoxy]-acetyl)2-(γ-Glu)-CO-(CH2)10-CH3)GGPSSGAPPPS-NH2
B2: Example 404 (peptide)
peptide: B1 peptide with X21K, K28E
modifications: Y-Aib-EGT-αMeF(2F)-TSD-4Pal-Aib-I-αMeL-LD-Orn-K(PEG3-(γ-Glu)-CO-(CH2)12-CO2H)AQ-Aib-K(PEG3-(γ-Glu)-CO-(CH2)12-CO2H)FI-(D-Glu)-αMeY-LIEGGPSSGAPPPS-NH2
B3: Example 396 (peptide)
peptide: B1 peptide with X10Y, X21E
modifications: Y-Aib-EGT-αMeF(2F)-TSDY-Aib-I-αMeL-LD-Orn-K((2-[2-(2-Amino-ethoxy)-ethoxy]-acetyl)2-(10-(4-carboxyphenoxy)decanoyl))AQ-Aib-EFI-(D-Glu)-αMeY-LIK((2-[2-(2-Amino-ethoxy)-ethoxy]-acetyl)2-(10-(4-carboxyphenoxy)decanoyl))GGPSSGAPPPS-NH2
B4: Example 405 (peptide)
peptide: B1 peptide with X21K, K28E
modifications: Y-Aib-EGT-αMeF(2F)-TSD-4Pal-Aib-I-αMeL-LD-Orn-K(PEG4-(γ-Glu)-CO-(CH2)12-CO2H)AQ-Aib-K(PEG4-(γ-Glu)-CO-(CH2)12-CO2H)FI-(D-Glu)-αMeY-LIEGGPSSGAPPPS-NH2
B5: Example 409 (peptide)
peptide: B1 peptide with X10Y, X21K, K28X
modifications: Y-Aib-EGT-αMeF(2F)-TSDY-Aib-I-αMeL-LD-Orn-K((2-[2-(2-Amino-ethoxy)-ethoxy]-acetyl)2-(γ-Glu)-(10-(4-carboxyphenoxy)decanoyl))AQ-Aib-K((2-[2-(2-Amino-ethoxy)-ethoxy]-acetyl)2-(γ-Glu)-(10-(4-carboxyphenoxy)decanoyl))FI-(D-Glu)-αMeY-LI-Orn-GGPSSGAPPPS-NH2
B6: Example 397 (peptide)
peptide: Y[Aib]EGT[αMePhe(2-F)]TSDV[Aib]I[αMeL]LD[Orn]K([AEEA-AEEA-Decanoyl(10-(4-HOOC-PhO))])AQ[Aib]EFI[dE][αMeY]LIK([AEEA-AEEA-Decanoyl(10-(4-HOOC-PhO))])GGPSSGAPPPS-NH2
B7: Example 399 (peptide)
peptide: Y[Aib]EGT[αMePhe(2-F)]TSDV[Aib]I[αMeL]LD[Orn]K([AEEA-γGlu-C14 diacid])AQ[Aib]EFI[dE][αMeY]LIK([AEEA-γGlu-C14 diacid])GGPSSGAPPPS-NH2
modifications: N-terminus assumed
SMILES: CC[C@H](C)[C@H](NC(=O)[C@H](CC(C)C)NC(=O)[C@](C)(Cc1ccc(O)cc1)NC(=O)[C@@H](CCC(=O)O)NC(=O)[C@@H](NC(=O)[C@H](Cc1ccccc1)NC(=O)[C@H](CCC(=O)O)NC(=O)C(C)(C)NC(=O)[C@H](CCC(N)=O)NC(=O)[C@H](C)NC(=O)[C@H](CCCCNC(=O)COCCOCCNC(=O)CC[C@H](NC(=O)CCCCCCCCCCCCC(=O)O)C(=O)O)NC(=O)[C@H](CCCN)NC(=O)[C@H](CC(=O)O)NC(=O)[C@H](CC(C)C)NC(=O)[C@](C)(CC(C)C)NC(=O)[C@@H](NC(=O)C(C)(C)NC(=O)[C@@H](NC(=O)[C@H](CC(=O)O)NC(=O)[C@H](CO)NC(=O)[C@@H](NC(=O)[C@](C)(Cc1ccccc1F)NC(=O)[C@@H](NC(=O)CNC(=O)[C@H](CCC(=O)O)NC(=O)C(C)(C)NC(=O)[C@@H](N)Cc1ccc(O)cc1)[C@@H](C)O)[C@@H](C)O)C(C)C)[C@@H](C)CC)[C@@H](C)CC)C(=O)N[C@@H](CCCCNC(=O)COCCOCCNC(=O)CC[C@H](NC(=O)CCCCCCCCCCCCC(=O)O)C(=O)O)C(=O)NCC(=O)NCC(=O)N1CCC[C@H]1C(=O)N[C@@H](CO)C(=O)N[C@@H](CO)C(=O)NCC(=O)N[C@@H](C)C(=O)N1CCC[C@H]1C(=O)N1CCC[C@H]1C(=O)N1CCC[C@H]1C(=O)N[C@@H](CO)C(N)=O

Each binder was assayed against T1, human GIP receptor (human) (UniProt P48546) (assay: cell-based or functional assay).
T1 sequence (looked up): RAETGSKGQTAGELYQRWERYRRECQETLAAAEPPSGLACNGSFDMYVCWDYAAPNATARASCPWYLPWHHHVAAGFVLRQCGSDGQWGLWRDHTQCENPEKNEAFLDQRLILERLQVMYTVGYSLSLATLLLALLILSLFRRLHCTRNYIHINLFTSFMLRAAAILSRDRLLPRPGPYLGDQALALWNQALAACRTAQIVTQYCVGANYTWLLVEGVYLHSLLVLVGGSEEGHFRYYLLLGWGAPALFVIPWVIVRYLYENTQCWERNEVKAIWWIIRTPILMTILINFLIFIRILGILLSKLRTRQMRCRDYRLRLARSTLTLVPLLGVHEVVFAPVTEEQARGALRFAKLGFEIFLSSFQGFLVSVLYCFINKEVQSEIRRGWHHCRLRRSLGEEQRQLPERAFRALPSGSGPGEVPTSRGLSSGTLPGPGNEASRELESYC
With B1 the cAMP EC50 was 0.00961 nM and the cAMP Emax was 98.4%. Work on B2 yielded a cAMP EC50 of 0.014 nM and a cAMP Emax of 101%. B3 showed a cAMP EC50 of 0.0113 nM and a cAMP Emax of 96.2%. B4 gave a cAMP EC50 of 0.0209 nM and a cAMP Emax of 100%. B5 was tested, and the cAMP EC50 was 0.00928 nM and the cAMP Emax was 99.2%. B6 showed a cAMP EC50 of 0.0293 nM and a cAMP Emax of 94.6%. B7 was tested, and the cAMP EC50 was 0.0186 nM and the cAMP Emax was 98.4%.

Each binder was assayed against hGLP-1R (Homo sapiens, UniProt P43220) (assay: cell-based or functional assay).
Binder B1 has a cAMP EC50 of 0.119 nM. B2 gave a cAMP EC50 of 0.632 nM and a cAMP Emax of 94.3%. Work on B3 yielded a cAMP EC50 of 0.291 nM and a cAMP Emax of 107%. Binder B4 has a cAMP EC50 of 1.26 nM and a cAMP Emax of 93.3%. B5 was tested, and the cAMP EC50 was 0.188 nM and the cAMP Emax was 103%. In the case of B6, the cAMP EC50 is reported as 0.166 nM and the cAMP Emax is reported as 95.8%. With B7 the cAMP EC50 was 0.259 nM and the cAMP Emax was 91.9%.

Each binder was assayed against human glucagon receptor (human) (UniProt P47871) (assay: cell-based or functional assay).
With B1 the cAMP EC50 was > 9950 nM. B2 was tested, and the cAMP EC50 was > 9950 nM. For B3, the cAMP EC50 was > 9950 nM. For B4, the cAMP EC50 was > 9950 nM. For B5, the cAMP EC50 was > 9950 nM. With B6 the cAMP EC50 was > 9950 nM. For B7, the cAMP EC50 was > 9950 nM.

What follows are binders tested against human GLP-1 receptor (human, UniProt P43220 24-463) (assay: cell-based or functional assay).
In the case of B1, the “cAMP EC50 (1.0% HSA)” value is reported as 3.24 nM. In the case of B2, the “cAMP EC50 (1.0% HSA)” value is reported as 49.1 nM. In the case of B3, the “cAMP EC50 (1.0% HSA)” value is reported as 6.49 nM and the “cAMP Emax (1.0% HSA)” value is reported as 94.4%. With B4 the “cAMP EC50 (1.0% HSA)” value was 37.5 nM and the “cAMP Emax (1.0% HSA)” value was 78.1%. With B5 the “cAMP EC50 (1.0% HSA)” value was 8.05 nM and the “cAMP Emax (1.0% HSA)” value was 97.7%. B6 was tested, and the “cAMP EC50 (1.0% HSA)” value was 7.17 nM. With B7 the “cAMP EC50 (1.0% HSA)” value was 43.6 nM and the “cAMP Emax (1.0% HSA)” value was 89.7%.

These binders were tested against human glucagon receptor (human, UniProt P47871 26-477) (assay: cell-based or functional assay).
Chain of human glucagon receptor (P47871 26-477): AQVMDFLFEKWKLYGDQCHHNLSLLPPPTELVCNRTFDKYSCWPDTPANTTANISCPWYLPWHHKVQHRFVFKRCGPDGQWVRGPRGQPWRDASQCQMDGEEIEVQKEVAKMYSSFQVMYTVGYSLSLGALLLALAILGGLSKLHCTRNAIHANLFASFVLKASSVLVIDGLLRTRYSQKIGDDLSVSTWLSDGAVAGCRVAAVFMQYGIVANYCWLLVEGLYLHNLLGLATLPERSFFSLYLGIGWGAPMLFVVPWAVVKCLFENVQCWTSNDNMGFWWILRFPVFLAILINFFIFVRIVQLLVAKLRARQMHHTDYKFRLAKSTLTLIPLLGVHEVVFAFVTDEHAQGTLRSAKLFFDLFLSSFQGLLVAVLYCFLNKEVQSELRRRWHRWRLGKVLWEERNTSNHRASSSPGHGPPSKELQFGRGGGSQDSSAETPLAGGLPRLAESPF
For B1, the “cAMP EC50 (1.0% HSA)” value was > 9950 nM. For B2, the “cAMP EC50 (1.0% HSA)” value was > 9950 nM. B3 was tested, and the “cAMP EC50 (1.0% HSA)” value was > 9950 nM. With B4 the “cAMP EC50 (1.0% HSA)” value was > 9950 nM. In the case of B5, the “cAMP EC50 (1.0% HSA)” value is reported as > 9950 nM. With B6 the “cAMP EC50 (1.0% HSA)” value was > 9950 nM. B7 was tested, and the “cAMP EC50 (1.0% HSA)” value was > 9950 nM.

What follows are binders tested against T2, human GIP receptor (human, UniProt P48546 22-466) (assay: cell-based or functional assay).
T2 sequence (looked up): T1 sequence (looked up)
With B1 the “cAMP EC50 (1.0% HSA)” value was 0.274 nM and the “cAMP Emax (1.0% HSA)” value was 92.2%. B2 was tested, and the “cAMP EC50 (1.0% HSA)” value was 1.74 nM. For B3, the “cAMP EC50 (1.0% HSA)” value was 0.595 nM and the “cAMP Emax (1.0% HSA)” value was 67.1%. For B4, the “cAMP EC50 (1.0% HSA)” value was 1.23 nM. In the case of B5, the “cAMP EC50 (1.0% HSA)” value is reported as 0.537 nM and the “cAMP Emax (1.0% HSA)” value is reported as 84%. For B6, the “cAMP EC50 (1.0% HSA)” value was 1.92 nM and the “cAMP Emax (1.0% HSA)” value was 84.5%. With B7 the “cAMP EC50 (1.0% HSA)” value was 16.2 nM and the “cAMP Emax (1.0% HSA)” value was 86.8%.

Reference: patent publication US20230265151A1, “GIP/GLP1 CO-AGONIST COMPOUNDS” (priority 2020, published 2023)
